Patent US20260242493A1

What was measured:
[1] = target: recombinant human FcγRI (human) (UniProt P12314); assay: ELISA: test protein coated, recombinant human FcγRI titrated, anti-CD64 detection, A450
[2] = target: recombinant human CD40L (BioLegend Cat. #591706) (human) (UniProt P29965); assay: ELISA on coated rhCD40L; lower limit of IC50
recombinant human CD40L (BioLegend Cat. #591706) (human), sequence (P29965 113-261 limits assumed, form in doubt): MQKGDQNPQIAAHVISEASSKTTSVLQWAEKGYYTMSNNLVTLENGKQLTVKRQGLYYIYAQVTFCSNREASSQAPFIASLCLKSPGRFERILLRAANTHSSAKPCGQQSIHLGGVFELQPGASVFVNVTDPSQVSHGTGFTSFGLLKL

recombinant human FcγRI (human), sequence (P12314 16-288 limits assumed): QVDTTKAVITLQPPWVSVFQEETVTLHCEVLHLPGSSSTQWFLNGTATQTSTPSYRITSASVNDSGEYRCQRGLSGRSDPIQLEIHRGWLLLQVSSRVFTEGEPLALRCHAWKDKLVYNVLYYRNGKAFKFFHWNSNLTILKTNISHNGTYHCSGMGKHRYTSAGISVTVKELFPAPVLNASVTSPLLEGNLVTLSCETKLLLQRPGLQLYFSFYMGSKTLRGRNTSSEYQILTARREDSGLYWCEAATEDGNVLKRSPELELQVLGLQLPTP

EC50 (read off the curve) [1]: 0.2 µg/mL | LCL [2]: 0.04
Substance: anti-CD40L antibody 5c8 (reference antibody)
